In patent US20250171560A1 (INNOVATIVE CELLULAR THERAPEUTICS, published 2025):

T1: recombinant UPK2 extracellular domain (UPK2-His) (Homo sapiens (Human), UniProt O00526 85-155)
T1 construct: Made in E. coli; not shown: His tag
T1 sequence: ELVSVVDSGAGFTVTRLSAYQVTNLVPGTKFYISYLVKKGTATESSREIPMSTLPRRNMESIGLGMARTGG

T2: recombinantly expressed PAP (ACPP-His) (Homo sapiens (Human), UniProt P15309 33-379, limits assumed)
T2 construct: ACPP gene cloned into PTSE-His, expressed in HEK293, purified on Histrap FF; also called serum prostatic acid phosphatase; ACPP antigen; not shown: His tag from vector PTSE-His
T2 sequence: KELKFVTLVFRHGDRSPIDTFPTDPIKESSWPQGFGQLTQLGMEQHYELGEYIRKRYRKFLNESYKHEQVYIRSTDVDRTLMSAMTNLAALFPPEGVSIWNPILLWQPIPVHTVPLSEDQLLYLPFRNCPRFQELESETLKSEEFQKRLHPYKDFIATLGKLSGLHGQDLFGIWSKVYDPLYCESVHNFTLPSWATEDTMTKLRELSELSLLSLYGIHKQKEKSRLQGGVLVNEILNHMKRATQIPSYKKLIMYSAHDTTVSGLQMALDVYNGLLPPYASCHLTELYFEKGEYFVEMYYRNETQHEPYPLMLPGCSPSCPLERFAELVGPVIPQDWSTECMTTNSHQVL

B1: recombinant anti-UPK2 monoclonal antibody S3D10 (murine-human chimeric) (antibody, V domains shown)
VH: QVQLQQSGAELVRSGASVKLSCTDSGFNIKDYYMNWVKQRPEQGLEWIGWIDPENGVTQYDPKFQGKATVTADTFSNTAYLQLSSLTSEDTAVYYCNANYKYDWFGYWGQGTLVTVSA
VL: NIVMTQSPSSLSASLGERVSLTCRASQEISGYLSWLQQKPDGTIKRLIYAASTLDSGVPERFSGSRSGSDYSLTISSLESEDFADYYCLQYASYPWTFGGGTKLEMK
notes: Murine variable regions, human constant regions (vectors pTSEG1n, pTSEK), HEK293; also called UPK2-S3D10
B2: recombinant anti-UPK2 monoclonal antibody S3C10 (murine-human chimeric) (antibody, V domains shown)
VH: QVQLKESGGGLVQPGESLKLSCESSEFPFPSHDMSWVRKTPEKRLELVAAINSDGGSTYYPDTMERRFIISRDNTKKTLYLQMSSLRSEDTALYYCASLPTFAYWGQGTLVTVSA
VL: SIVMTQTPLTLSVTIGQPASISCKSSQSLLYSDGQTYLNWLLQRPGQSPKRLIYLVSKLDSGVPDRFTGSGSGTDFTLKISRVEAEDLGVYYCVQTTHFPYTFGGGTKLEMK
notes: Murine variable regions, human constant regions (vectors pTSEG1n, pTSEK), HEK293; also called UPK2-S3C10
B3: scFv UPK2-S2B7 (phage display clone) (scFv)
scFv: EVQLQQSGAELMKPGTSVKMSCKAAGYTFTKYWIGWVKQRPGHGLEWIGDIYPGGGYTLFNEKFKGKATLTADTSSSTAYMQLSSLTSEDSAIYYCARGNYWGQGTTLTVSSGGGGSGGGGSGGGGSDVVMTQTPLTLSVTIGQPASISCKSSQSLLDSDGKTYLNWLLQRPGQSPKRLIYLVSKLDSGVPDRFTGSGSGTDFTLKISRVEAEDLGVYYCWQGTHFPHTFGGGTKLEMK
notes: also called clone S2B7
B4: ACPP antibody S5F2 (human full antibody) (antibody, V domains shown)
VH: QVQLVQSGAEVKKPGSSVKVSCKASEDTFSSYVISWVRQAPGQGLEWMGAFIPLLGRVHYAQEFQGRLTITADESTGTAYMELKGLRSDDTAMYYCARDQGFAGDDAFDIWGQGTMVTVSS
VL: LPVLTQPPSASGTPGQRVTISCSGSSSNIGSNAVDWYQQLPGTAPKLLIYTNNRRPSGVPDRFSGSKSGTSGSLAISGLQFEDEADYYCAAWDDSLSGVIFGGGTKVTVL
notes: Human full antibody from vectors pTSEG1n and pTSEK, HEK293
B5: recombinant anti-UPK2 monoclonal antibody S7F11 (murine-human chimeric) (antibody, V domains shown)
VH: EVQLKESGAELVRSGASVKLSCTASAFNIKDYYMNWMKQRPEQGLEWIGWIDPENGDTKYAPKFQGKATITADTSSSTAYLQLTSLTSEDSAVFYCNVNYKYDWFAYWGQGTLVTVSA
VL: DVVMTQSQKFMSTSVGDRVSVTCKASQNVGTNVAWYQQKPGQSPRALIYSASYRYSGVPDRFTGSGSGTDFTLTISNVQSEDLAEYFCQQYNTYPWTFGGGTKLEIK
notes: the first set is used here; Murine variable regions, human constant regions; also called UPK2-S7F11
B6: recombinant anti-UPK2 monoclonal antibody S3A4 (murine-human chimeric) (antibody, V domains shown)
VH: EVKLKQSGAELVKPGASVKLSCKASGYTLTSYYIYWVKQRPGQGLEWIGGISPSNGNTYFTEKFKNMATLTVDKSSNTAYMQLSSLTSEDSAVYYCARNYDYDVGFAYWGQGTLVTVSS
VL: DVVMTQTPLSLPVSLGDQASISCRSSQSIVHSNGNTYLEWYLQKPGQSPKLLIYKVSNRFSGVPDRFSGSGSGTDFTLKISRVEAEDLGVYYCFQGSHVPFTFGSGTKLEIK
notes: Murine variable regions, human constant regions (vectors pTSEG1n, pTSEK), HEK293; also called UPK2-S3A4
B7: ACPP antibody S5D1 (human full antibody) (antibody, V domains shown)
VH: EVQLVQSGAEVKKPGESLKISCKGSGYTFTNYWIGWVRQMPGKGLEWMGRIYPSDSYTNYSPSFQGQVTISADKSISTAYLQWSSLKASDTAMYYCARDLEPTHHYSWGQGTLVTVSS
VL: QSVLTQPASVSGSPGQSVTISCTGTSSDVGGYNYVSWYQQHPGKPPKLMIYEVSKRPSGVPDRFSGSKSGNTASLTISGLQAEDEADYYCSSHTSSNTLIFGGGTKVTVL
notes: Variable regions cloned into vectors pTSEG1n (heavy) and pTSEK (light) and expressed in HEK293 as human full antibody; also called monoclonal antibody S5D1
B8: recombinant anti-UPK2 monoclonal antibody S2E2 (murine-human chimeric) (antibody, V domains shown)
VH: QVKLQQSGPELVRPGASVKMSCKASGYTFTTYWMHWVKQRPGQGLEWIGMIDPSNSDTRLNQKFKDKATLNVDTSSNTAYMHLSSLTSEDSAVYYCTLGGTEYWGQGATLTVSS
VL: SIVMTQSPATLSVTPGDRVSLSCRASQSIGDYLHWFQQKSHESPRLLIKYASQSISGIPSRFSGSGSGSDFTLIINTMEPEDVGVYYCQNAHTYPYTFGGGTKLEIK
notes: Murine variable regions, human constant regions (vectors pTSEG1n, pTSEK), HEK293; also called UPK2-S2E2
B9: recombinant anti-UPK2 monoclonal antibody S2B7 (murine-human chimeric) (antibody, V domains shown)
VH: EVQLQQSGAELMKPGTSVKMSCKAAGYTFTKYWIGWVKQRPGHGLEWIGDIYPGGGYTLFNEKFKGKATLTADTSSSTAYMQLSSLTSEDSAIYYCARGNYWGQGTTLTVSS
VL: not shown
notes: Murine variable regions, human constant regions (vectors pTSEG1n, pTSEK); also called UPK2-S2B7
B10: recombinant anti-UPK2 monoclonal antibody S7F9 (murine-human chimeric) (antibody, V domains shown)
VH: QVQLKQSGPGLVRPGASVTMSCKASGYTFTSNWMHWVKQRPGQGLDWIGMIDPSNSDTRLNQKFKDKATLNVDKSSNTAYMQLSSLTSDDSAVYYCMRGGGDYWGQGTTLTVSS
VL: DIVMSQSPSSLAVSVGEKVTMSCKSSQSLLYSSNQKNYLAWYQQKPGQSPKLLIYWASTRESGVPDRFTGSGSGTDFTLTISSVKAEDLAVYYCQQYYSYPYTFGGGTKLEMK
notes: Murine variable regions, human constant regions (vectors pTSEG1n, pTSEK), HEK293; also called UPK2-S7F9

How the values were obtained:
[1] = target: T1, recombinant UPK2 extracellular domain …; assay: SPR, BIAcore X-100; antibody captured, UPK2-His as mobile phase; remark U-value = 15, fit poor, for reference only
Protocol: (§1) The affinity of the eight monoclonal antibodies was analyzed using GE's BIAcore X-100. Affinity analysis was performed using a conventional procedure by first capturing the human monoclonal antibody with an anti-human antibody coated on a chip, and then using different concentrations of recombinant UPK2-His as the mobile phase for affinity analysis. […] Among them, the binding and dissociation of S7F11/S7G7 were slow, and the binding of S3D10 was too slow. When the three monoclonal antibodies were analyzed by BIAcore X-100 for affinity analysis, the automatic fitting of KD was poor, and the data was for reference only.

[2] = target: T1, recombinant UPK2 extracellular domain …; assay: ELISA, antibody dilution series on UPK2-his coated at 0.5 ug/ml, OD490
Protocol: The ability of recombinant whole antibodies to bind antigen UPK2-His was analyzed using a classical ELISA method.

[3] = target: T1, recombinant UPK2 extracellular domain …; assay: SPR, BIAcore X-100; antibody captured by anti-human antibody on chip, UPK2-His as mobile phase
Protocol: as §1

[4] = target: T1, recombinant UPK2 extracellular domain …; assay: phage ELISA, purified scFv phage on UPK2-his coated at 0.5 ug/ml, OD490
[5] = target: T2, recombinantly expressed PAP (ACPP-His); assay: SPR, BIAcore X-100; antibody captured by anti-human antibody on chip, recombinant PAP as mobile phase; speculated value, read as weaker than 100 nM because the next sentence says S5D1 has the higher affinity
Protocol: (§2) For the affinity assay in FIG. 10, the affinity of two monoclonal antibodies, S5D1 and S5F2, was analyzed using GE's BIAcore X-100 Biomolecular Interaction Analyzer. Affinity analysis was performed using a conventional procedure. The human monoclonal antibody S5D1 or S5F2 was captured using an anti-human antibody coated on a chip. Affinity analysis was then performed using different concentrations of recombinantly expressed PAP as the mobile phase. […] S5D1 has a higher affinity for ACPP antigen.

[6] = target: T1, recombinant UPK2 extracellular domain …; assay: SPR, BIAcore X-100; antibody captured, UPK2-His as mobile phase; remark Kd overrun, fit poor, for reference only
Protocol: as §1

[7] = target: T2, recombinantly expressed PAP (ACPP-His); assay: BIAcore X-100, antibody captured by anti-human antibody on the chip, recombinant PAP as the mobile phase
Protocol: as §2

[8] = target: T2, recombinantly expressed PAP (ACPP-His); assay: SPR, BIAcore X-100; antibody captured by anti-human antibody on chip, recombinant PAP as mobile phase
Protocol: as §2

[9] = target: T1, recombinant UPK2 extracellular domain …; assay: SPR, BIAcore X-100; antibody captured by anti-human antibody on chip, UPK2-His as mobile phase; exponent as printed, koff/kon gives 2.34e-8
Protocol: as §1

Row | Binder | EC50 (read off the curve) [2] [nM] | Kd [3] [nM] | also measured
1 | B1 |  |  | Kd [1]: 4060 nM
2 | B2 | ~0.5 | 0.911 | 
3 | B3 |  |  | EC50 (read off the curve) [4]: ~3e+10 cfu/ml
4 | B4 |  |  | Kd [5]: > 100 nM
5 | B5 |  |  | Kd [6]: 2.32 nM
6 | B6 | ~0.6 | 27.1 | 
7 | B7 |  |  | Kd [7]: 9.02 nM; Kd [8]: ~9 nM
8 | B8 | ~0.5 | 2.82 | 
9 | B9 | ~0.5 |  | Kd [9]: 23.4 nM
10 | B10 | ~0.5 | 16.7 | 
